These results are taken from article PMC12838526.

This assay addresses F-actin (polymerized rabbit skeletal muscle actin) (rabbit) (UniProt P68135). In words: co-sedimentation.

In the case of “Cno FAB peptide (residues 1967-2051), full-length form (domain or fragment)”, the percent co-sedimented with F-actin is 55% and the percent co-sedimented with F-actin, αcat ABD added worked out at 76%. Turning to “GST-Cno H+C+FAB-His6 (Cno residues 1560-2051) (domain or fragment)”, the percent co-sedimented with F-actin stood at 32%.
